Patent publication US20130337002A1

Tests used:
Assay in all cases: REVEAL MHC-peptide binding
HLA-A11 = target: HLA-A11
HLA-A1 = target: HLA-A1
HLA-A24 = target: HLA-A24
HLA-A29 = target: HLA-A29
HLA-A2 = target: HLA-A2
HLA-A3 = target: HLA-A3
HLA-B14 = target: HLA-B14
HLA-B15 = target: HLA-B15
HLA-B27 = target: HLA-B27
HLA-B35 = target: HLA-B35
HLA-B7 = target: HLA-B7
HLA-B8 = target: HLA-B8

Row | Substance | % of positive control (HLA-A11) [%] | % of positive control (HLA-A1) [%] | % of positive control (HLA-A24) [%] | % of positive control (HLA-A29) [%] | % of positive control (HLA-A2) [%] | % of positive control (HLA-A3) [%] | % of positive control (HLA-B14) [%] | % of positive control (HLA-B15) [%] | % of positive control (HLA-B27) [%] | % of positive control (HLA-B35) [%] | % of positive control (HLA-B7) [%] | % of positive control (HLA-B8) [%]
1 | L[Nle]GYIPLIG (peptide) | 2.48 | 14.3 | 0.71 | 25.9 | 49.5 | 3.98 | 0.15 | 14.6 | 0.73 | 2.85 | 0.89 | 17.3
2 | EL[Nle]GYIPLI (peptide) | 3.21 | 18.3 | 0.92 | 20.9 | 97.9 | 4.54 | 0.14 | 8.91 | 0.67 | 2.55 | 0.68 | 17.1
3 | [Cit]IGVRAT[Cit]R (peptide) | 8.27 | 19.7 | 0.5 | 16.7 | 8.17 | 25.2 | 0.17 | 14.4 | 0.86 | 8.51 | 14.6 | 12.1
4 | P[Cit]IGVRAT[Cit] (peptide) | 1.72 | 18.8 | 0.21 | 14.1 | 7.36 | 2.52 | 0.19 | 12.6 | 0.94 | 2.45 | 1.91 | 9.47
5 | GP[Cit]IGVRAT (peptide) | 2.72 | 18.6 | 0.16 | 11.9 | 9.16 | 3.48 | 0.13 | 7.29 | 0.59 | 2.25 | 5.38 | 9.99
6 | AEL[Nle]GYIPL (peptide) | 3.61 | 16.6 | 0.37 | 20.8 | 7.49 | 3.05 | 0.12 | 10.2 | 0.77 | 1.91 | 1.11 | 14.7
7 | [Nle]GYIPLIGA (peptide) | 7.27 | 17.9 | 1.33 | 27.9 | 10.4 | 3.13 | 0.29 | 11.1 | 1.42 | 5.89 | 1.78 | 21.4
